Measurements taken from the supplement of paper PMC9112550, “Optimization of the antimicrobial peptide Bac7 by deep mutational scanning” (BMC Biology, 2022).

System: Escherichia coli TOP10
Assay: shrunken log2 fold change of peptide-encoding DNA abundance (4.5 h post-induction vs induction); higher = less antimicrobial activity (less host growth inhibition)
Conditions: time post-induction: 4.5 h; library: site-saturation at positions 5, 18, 19, 20
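Also: peptides expressed intracellularly from a pBAD plasmid library in pooled LB shake-flask culture, induced with 0.3% L-arabinose, DNA abundance read by NGS, three biological replicates, DESeq2 with apeglm shrinkage.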

Sequence | shrunken log2 fold change
RRIRQRPPRLPRPRPRPKPEPRP | -0.0759
RRIRSRPPRLPRPRPRPYKSPRP | -0.694
RRIRQRPPRLPRPRPRPGVMPRP | -0.0819
RRIRSRPPRLPRPRPRPMISPRP | -0.453
RRIRQRPPRLPRPRPRPSWQPRP | -0.0449
RRIRWRPPRLPRPRPRPKQKPRP | 0.0665
RRIRSRPPRLPRPRPRPDHKPRP | -0.18
RRIRLRPPRLPRPRPRPLCAPRP | 0.11
RRIRMRPPRLPRPRPRPPSDPRP | 1.06
RRIRMRPPRLPRPRPRPWLGPRP | 0.221
RRIRGRPPRLPRPRPRPNYFPRP | 0.0394
RRIRARPPRLPRPRPRPMNDPRP | 0.138
RRIRTRPPRLPRPRPRPCFIPRP | -1.05
RRIRTRPPRLPRPRPRPFYAPRP | -0.301
RRIRPRPPRLPRPRPRPFTLPRP | -0.379
RRIRVRPPRLPRPRPRPNNVPRP | -0.117
RRIRFRPPRLPRPRPRPMGCPRP | 0.125
RRIRVRPPRLPRPRPRPPWPPRP | 0.464
RRIRQRPPRLPRPRPRPRPKPRP | 0.936
RRIRNRPPRLPRPRPRPKLKPRP | 0.2
RRIRLRPPRLPRPRPRPKETPRP | 0.137
RRIRGRPPRLPRPRPRPCSEPRP | 0.0744
RRIRARPPRLPRPRPRPSVGPRP | 0.324
RRIRVRPPRLPRPRPRPMLNPRP | -0.135
RRIRFRPPRLPRPRPRPMRQPRP | 0.0953

Sequence | shrunken log2 fold change
RRIRPRPPRLPRPRPRPLAPPRP | 0.33
RRIRQRPPRLPRPRPRPLDPPRP | -0.408
RRIRTRPPRLPRPRPRPGWMPRP | -0.182
RRIRARPPRLPRPRPRPSIKPRP | -0.133
RRIRRRPPRLPRPRPRPTSKPRP | 0.162
RRIRIRPPRLPRPRPRPRAVPRP | 0.314
RRIRYRPPRLPRPRPRPCYPPRP | -0.37
RRIRYRPPRLPRPRPRPHCMPRP | -0.161
RRIRCRPPRLPRPRPRPPIIPRP | -0.294
RRIRFRPPRLPRPRPRPDKYPRP | -1.65
RRIRSRPPRLPRPRPRPGHEPRP | 0.101
RRIRCRPPRLPRPRPRPTERPRP | 0.211
RRIRKRPPRLPRPRPRPNMVPRP | 0.114
RRIRKRPPRLPRPRPRPPEQPRP | 0.0815
RRIRPRPPRLPRPRPRPNQKPRP | -0.0811
RRIRIRPPRLPRPRPRPLIAPRP | -0.24
RRIRWRPPRLPRPRPRPLDMPRP | 0.14
RRIRPRPPRLPRPRPRPEQNPRP | -0.199
RRIRDRPPRLPRPRPRPVFWPRP | 0.639
RRIRFRPPRLPRPRPRPTIKPRP | -0.223
RRIRVRPPRLPRPRPRPNRMPRP | -0.093
RRIRIRPPRLPRPRPRPLGFPRP | -0.393
RRIRLRPPRLPRPRPRPKAEPRP | 0.375
RRIRRRPPRLPRPRPRPVKFPRP | 0.0517
RRIRGRPPRLPRPRPRPPFNPRP | 1.66

Sequence | shrunken log2 fold change
RRIRLRPPRLPRPRPRPQARPRP | 0.169
RRIRWRPPRLPRPRPRPQPYPRP | -0.166
RRIRGRPPRLPRPRPRPPWLPRP | 0.849
RRIRFRPPRLPRPRPRPYDNPRP | -0.775
RRIRARPPRLPRPRPRPWQCPRP | -0.197
RRIRRRPPRLPRPRPRPNTRPRP | 0.162
RRIRVRPPRLPRPRPRPVENPRP | 0.02
RRIRYRPPRLPRPRPRPTILPRP | -0.521
RRIRQRPPRLPRPRPRPRHTPRP | -0.147
RRIRIRPPRLPRPRPRPMCWPRP | -0.00326
RRIRIRPPRLPRPRPRPMMDPRP | -0.132
RRIRVRPPRLPRPRPRPTNQPRP | 0.0229
RRIRQRPPRLPRPRPRPPLDPRP | 0.685
RRIRARPPRLPRPRPRPKKFPRP | 0.138
RRIRQRPPRLPRPRPRPMQYPRP | -0.309
RRIRIRPPRLPRPRPRPNLQPRP | -0.285
RRIRCRPPRLPRPRPRPGELPRP | 0.139
RRIRERPPRLPRPRPRPVWKPRP | 0.00515
RRIRFRPPRLPRPRPRPASDPRP | -0.32
RRIRCRPPRLPRPRPRPTCWPRP | 0.15
RRIRVRPPRLPRPRPRPRSLPRP | -0.116
RRIRDRPPRLPRPRPRPCHVPRP | -0.0466
RRIRGRPPRLPRPRPRPVVFPRP | 0.56
RRIRKRPPRLPRPRPRPNITPRP | -0.0249
RRIRTRPPRLPRPRPRPVPLPRP | -0.145

Sequence | shrunken log2 fold change
RRIRHRPPRLPRPRPRPEHQPRP | -0.291
RRIRLRPPRLPRPRPRPVPNPRP | 0.0119
RRIRPRPPRLPRPRPRPIRPPRP | 0.184
RRIRIRPPRLPRPRPRPDIMPRP | -0.121
RRIRTRPPRLPRPRPRPDPEPRP | 0.155
RRIRIRPPRLPRPRPRPTITPRP | -0.996
RRIRDRPPRLPRPRPRPSKIPRP | -0.381
RRIRPRPPRLPRPRPRPVDSPRP | -0.177
RRIRGRPPRLPRPRPRPRHEPRP | 0.604
RRIRWRPPRLPRPRPRPRDWPRP | 0.958
RRIRMRPPRLPRPRPRPKQYPRP | 0.146
RRIRGRPPRLPRPRPRPDEEPRP | 1.76
RRIRIRPPRLPRPRPRPYAPPRP | -0.242
RRIRQRPPRLPRPRPRPKCEPRP | 0.0276
RRIRFRPPRLPRPRPRPPEAPRP | 0.232
RRIRLRPPRLPRPRPRPCRKPRP | -0.19
RRIRWRPPRLPRPRPRPTVTPRP | 0.0889
RRIRQRPPRLPRPRPRPNPMPRP | -0.00515
RRIRGRPPRLPRPRPRPEGHPRP | 1.8
RRIRQRPPRLPRPRPRPQNRPRP | -0.0176
RRIRIRPPRLPRPRPRPCNKPRP | -0.47
RRIRIRPPRLPRPRPRPSHMPRP | -0.425
RRIRLRPPRLPRPRPRPFYIPRP | -0.865
RRIRVRPPRLPRPRPRPTSIPRP | -0.201
RRIRMRPPRLPRPRPRPPRNPRP | 1.27

Sequence | shrunken log2 fold change
RRIRKRPPRLPRPRPRPMDAPRP | 0.415
RRIRSRPPRLPRPRPRPDFWPRP | 0.506
RRIRLRPPRLPRPRPRPFHHPRP | -0.147
RRIRKRPPRLPRPRPRPFNMPRP | 0.0229
RRIRCRPPRLPRPRPRPSFPPRP | -0.608
RRIRIRPPRLPRPRPRPIIVPRP | -0.666
RRIRVRPPRLPRPRPRPHDDPRP | -0.162
RRIRHRPPRLPRPRPRPPEFPRP | -0.0433
RRIRIRPPRLPRPRPRPQPSPRP | -0.214
RRIRDRPPRLPRPRPRPMDQPRP | 0.326
RRIRGRPPRLPRPRPRPGTTPRP | 0.379
RRIRTRPPRLPRPRPRPNSEPRP | 0.0485
RRIRMRPPRLPRPRPRPLAPPRP | 0.735
RRIRFRPPRLPRPRPRPCPYPRP | -0.261
RRIRPRPPRLPRPRPRPCMPPRP | -0.534
RRIRFRPPRLPRPRPRPFANPRP | -0.124
RRIRNRPPRLPRPRPRPNVAPRP | 3.26
RRIRVRPPRLPRPRPRPGPIPRP | 0.0476
RRIRKRPPRLPRPRPRPQIRPRP | -0.0406
RRIRKRPPRLPRPRPRPFKQPRP | 0.0339
RRIRFRPPRLPRPRPRPCPGPRP | -0.151
RRIRSRPPRLPRPRPRPWPNPRP | -0.13
RRIRPRPPRLPRPRPRPFPNPRP | -0.0765
RRIRPRPPRLPRPRPRPGRAPRP | 0.549
RRIRARPPRLPRPRPRPIMAPRP | 0.0923

Sequence | shrunken log2 fold change
RRIRTRPPRLPRPRPRPGNNPRP | -0.14
RRIRVRPPRLPRPRPRPARYPRP | 0.0291
RRIRTRPPRLPRPRPRPVRGPRP | 0.784
RRIRYRPPRLPRPRPRPSHDPRP | -0.916
RRIRRRPPRLPRPRPRPYDPPRP | 0.0185
RRIRQRPPRLPRPRPRPNETPRP | -0.0269
RRIRGRPPRLPRPRPRPASAPRP | 0.818
RRIRKRPPRLPRPRPRPQMCPRP | -0.0359
RRIRARPPRLPRPRPRPYYQPRP | -0.374
RRIRTRPPRLPRPRPRPTDDPRP | -0.078
RRIRYRPPRLPRPRPRPPMVPRP | -0.35
RRIRCRPPRLPRPRPRPTLMPRP | -0.0222
RRIRERPPRLPRPRPRPQYFPRP | -0.891
RRIRIRPPRLPRPRPRPWWHPRP | -0.218
RRIRPRPPRLPRPRPRPHVHPRP | -0.254
RRIRARPPRLPRPRPRPVLGPRP | 0.419
RRIRRRPPRLPRPRPRPCFKPRP | -0.236
RRIRARPPRLPRPRPRPTYTPRP | -0.0355
RRIRSRPPRLPRPRPRPIQTPRP | -0.0822
RRIRGRPPRLPRPRPRPGLPPRP | 0.747
RRIRTRPPRLPRPRPRPALPPRP | 0.204
RRIRRRPPRLPRPRPRPEIRPRP | 0.0292
RRIRPRPPRLPRPRPRPCCLPRP | -0.439
RRIRMRPPRLPRPRPRPFEYPRP | -0.219
RRIRQRPPRLPRPRPRPKLDPRP | 0.168
